Reference: patent US11976099B2, “Compositions and methods for treatment of bone associated diseases” (THE NATIONAL INSTITUTE FOR BIOTECHNOLOGY IN THE NEGEV LTD., priority 2016, dated 2024)
Each block holds one molecule with its values, some of them ahead of it.

What was measured:
c-FMS and αvβ3 integrin = experiment: YSD binding of M-CSFRGD variants to c-FMS and αvβ3 integrin, alone and simultaneously; design: species or system human
Description: For expressing the M-CSFM gene and the two M-CSFRGD libraries on the yeast surface, the SDCAA medium was replaced by SGCAA medium (2% galactose, 0.67% yeast nitrogen base, 0.5% bacto casamino acids, 1.47% sodium citrate, 0.429% citric acid monohydrate) and the yeasts were incubated overnight at 30° C. until the culture reached OD600=10.0 (10^8 cells per ml). A number of cells equal to ten times the library size was added to 1 ml of PBS containing 1% bovine serum albumin (PBSA); the suspension was centrifuged, and the supernatant was removed. For binding analysis of M-CSFM and the M-CSFRGD libraries to c-FMS, yeast cells were incubated with mouse anti c-myc antibody, 9E10 (Abcam, Cambridge, MA, USA) in a 1:50 ratio and different concentrations of soluble Fc conjugated human c-FMS (R&D systems, USA) for 1 h at room temperature. […]
To identify the high αvβ3 integrin and c-FMS binders, 25 different clones from sort 4 and 25 different clones from sort 5 were tested for binding to 20 nM of αvβ3 integrin, as described in the flow cytometry sorting section. […] To determine the binding specificity to other RGD binding integrins, namely α4β7, […], α5β1 and αvβ5 (BioLegend, USA), the three chosen M-CSFRGD variants (4.22, 4.24 and 5.6) were analyzed for binding to 250 nM of each integrin. […]

αvβ3 integrin = αvβ3 integrin (Homo sapiens, UniProt P05106+P06756); experiment: SPR binding of purified proteins to αvβ3 integrin; details: proteins immobilized; integrin 0-200 nM; equilibrium
Description: Determination of binding of the soluble purified proteins (M-CSFM and M-CSFRGD variants) to c-FMS and αvβ3 integrin was performed on a ProteOn XPR36 (Bio-Rad, USA). […] Unbound esters were deactivated with 1 M ethanolamine HCl at pH 8.5, and the temperature was set at 25° C. Then, the chip was rotated, and the human c-FMS soluble proteins (Sino Biological, China) were allowed to flow over the chip at 6 different concentrations (0, 12.5, 25, 50, 100 and 200 nM) at a flow rate of 50 μl/min for 490 s, followed by dissociation for 600 s in PBS+0.005% Tween (PBST). For determining αvβ3 integrin binding, the chip was regenerated using 50 mM NaOH at a flow rate of 100 μl/min and analyzed again for c-FMS binding to make sure that the chip had been regenerated. After making sure the chip is regenerated, and different concentrations of […] proteins (0, 12.5, 25, 50, 100 and 200 nM) were allowed to flow over the chip. The interactions obtained were normalized to the initial protein binding RUs to the chip surface. Then, for each concentration, the KD was obtained from the equilibrium binding phase of the sensorgram. To determine the αvβ3 integrin specificity for each M-CSFRGD variant, a new chip was loaded with different RGD binding integrins, as follows: 8.5 μg of α3β1, 8.5 μg of α4β7, 6 μg of α5β1, 8.5 μg of αvβ5, and 8.5 μg of αvβ3 integrin and 3 μg of BSA as a negative control. […]

αvβ3 integrin, sequence (P06756 31-992 limits assumed): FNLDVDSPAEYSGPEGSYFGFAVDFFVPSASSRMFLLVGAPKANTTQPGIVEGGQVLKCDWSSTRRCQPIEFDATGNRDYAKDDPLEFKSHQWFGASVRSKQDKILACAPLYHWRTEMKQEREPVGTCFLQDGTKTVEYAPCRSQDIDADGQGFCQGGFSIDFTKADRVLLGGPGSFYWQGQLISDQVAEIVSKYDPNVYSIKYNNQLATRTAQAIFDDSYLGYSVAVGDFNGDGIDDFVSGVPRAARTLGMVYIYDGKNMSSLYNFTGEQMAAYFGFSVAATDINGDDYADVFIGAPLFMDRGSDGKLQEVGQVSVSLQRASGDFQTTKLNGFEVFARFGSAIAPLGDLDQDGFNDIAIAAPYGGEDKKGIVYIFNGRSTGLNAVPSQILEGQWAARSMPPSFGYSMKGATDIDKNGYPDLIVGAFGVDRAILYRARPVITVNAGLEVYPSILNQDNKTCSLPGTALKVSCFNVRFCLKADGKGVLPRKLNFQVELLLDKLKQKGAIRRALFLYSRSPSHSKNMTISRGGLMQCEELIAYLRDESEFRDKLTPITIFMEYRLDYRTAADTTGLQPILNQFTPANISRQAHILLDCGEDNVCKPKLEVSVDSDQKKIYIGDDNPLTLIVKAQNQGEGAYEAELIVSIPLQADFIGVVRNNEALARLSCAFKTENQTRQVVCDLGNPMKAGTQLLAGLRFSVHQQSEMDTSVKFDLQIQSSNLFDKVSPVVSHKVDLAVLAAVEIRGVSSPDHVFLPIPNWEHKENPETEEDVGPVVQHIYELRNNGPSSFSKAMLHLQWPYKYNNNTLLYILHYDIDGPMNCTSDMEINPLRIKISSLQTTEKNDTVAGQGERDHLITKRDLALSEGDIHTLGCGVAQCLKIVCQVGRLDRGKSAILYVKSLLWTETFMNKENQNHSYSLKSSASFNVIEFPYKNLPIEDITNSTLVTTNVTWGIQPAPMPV
αvβ3 integrin, sequence (P05106 27-718 limits assumed): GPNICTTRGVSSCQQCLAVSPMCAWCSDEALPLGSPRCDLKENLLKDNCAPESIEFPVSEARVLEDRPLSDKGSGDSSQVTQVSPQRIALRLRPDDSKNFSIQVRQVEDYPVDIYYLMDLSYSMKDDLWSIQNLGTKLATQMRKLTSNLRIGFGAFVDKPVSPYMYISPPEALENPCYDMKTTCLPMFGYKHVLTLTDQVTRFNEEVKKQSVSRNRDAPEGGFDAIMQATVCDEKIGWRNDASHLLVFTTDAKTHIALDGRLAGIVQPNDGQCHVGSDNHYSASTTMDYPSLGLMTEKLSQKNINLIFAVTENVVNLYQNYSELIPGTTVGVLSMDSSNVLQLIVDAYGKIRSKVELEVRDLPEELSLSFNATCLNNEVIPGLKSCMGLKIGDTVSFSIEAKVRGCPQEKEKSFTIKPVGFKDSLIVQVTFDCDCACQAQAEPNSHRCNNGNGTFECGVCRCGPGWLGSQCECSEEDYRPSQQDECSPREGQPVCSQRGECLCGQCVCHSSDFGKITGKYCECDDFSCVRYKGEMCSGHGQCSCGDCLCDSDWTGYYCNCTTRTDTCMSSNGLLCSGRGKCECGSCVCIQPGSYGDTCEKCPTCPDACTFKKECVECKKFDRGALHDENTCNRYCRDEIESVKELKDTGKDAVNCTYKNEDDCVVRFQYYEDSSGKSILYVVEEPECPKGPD

B1: 5.6: bispecific M-CSFRGD variant from sort five; M-CSFM loop replaced by XXXRGDXXX motif; binds c-FMS and αvβ3 integrin (protein)
chain: EEVSEYCSHMIGSGHLQSLQRLIDTYPRGDMCSITFEFVDQEQLKDPVCYLKKAFLLVQDIMEDTMRFRDNTPNAIAIVQLQELSLRLKSCFTKDYEEHDKACVRTFYETPLQLLEKVKNVFNETKNLLDKDWNIFSKNCNNSFAECSSQGHERQSEGS
modifications: left off: small tags and cut ends
relative affinity for c-FMS and αvβ3 integrin (c-FMS and αvβ3 integrin): higher affinity for c-FMS than for αvβ3 integrin
simultaneous binding of c-FMS and αvβ3 integrin (c-FMS and αvβ3 integrin; data not shown): could simultaneously bind c-FMS and αvβ3 integrin

KD to αvβ3 integrin (αvβ3 integrin): did not bind
B2: M-CSFM: 158 amino acid M-CSF with cysteine at position 31 replaced by serine (SEQ ID NO: 2) (protein)
chain: EEVSEYCSHMIGSGHLQSLQRLIDSQMETSSQITFEFVDQEQLKDPVCYLKKAFLLVQDIMEDTMRFRDNTPNAIAIVQLQELSLRLKSCFTKDYEEHDKACVRTFYETPLQLLEKVKNVFNETKNLLDKDWNIFSKNCNNSFAECSSQGHERQSEGS
